Source: PMC8752837, “Structural basis of BAK activation in mitochondrial apoptosis initiation” (Nature Communications, 2022)

Assays:
[1] = Liposome permeabilization by WT and mutant BAK proteins (autoactivation, or direct activation by BID BH3); type: biochemical; conditions: absence of BID BH3
Experimental: Human BAK-∆TM-His6 (BAK)[26] spontaneously permeabilizes liposomes above a certain dose (>100 nM, Fig. 1a). In these dye-release assays[43]–[46], BAK is recruited via His-tag to liposomes containing 2.5 µM of the lipid 1,2-dioleoyl-sn-glycero-3-[(N-(5-amino-1-carboxypentyl)iminodiacetic acid)succinyl] (nickel salt), DGS-NTA(Ni).
To probe autoactivation with full-length BAK, we mutated hydrophobic residues at positions (0)−(6) of the BH3 to alanine or arginine, and D83, which forms the conserved salt bridge (s) with R127, to alanine (Fig. 2a). The BH3 residues participate in autoactivation from the ligand side [hydrophobic positions (0)–(5) and D83(s)] and also from the receptor groove side [hydrophobic positions (3)–(5)] (Fig. 2a). Thus, substitutions at positions (3)–(5) should affect receptor and ligand activities and are predicted to impact BAK activation more severely than mutations of positions (0)–(2), which affect only ligand activity. […] In contrast, almost all (2)–(5) and (s) missense mutants were considerably impaired in autoactivation (Fig. 2b and Supplementary Fig. 3a). […] Despite impairment in autoactivation, all missense mutants were directly activated by BID BH3 peptide, although they induced lower level of permeabilization compared to WT BAK (Fig. 2b and Supplementary Fig. 3a).
We performed liposome permeabilization assays as previously described[43]–[46]. […] (nickel salt) [DGS NTA(Ni), 2.5 μM final concentration in each assay] (Avanti Polar Lipids). We prepared 12.5 mM fluorophore; 8-aminonaphthalene-1, 3, 6-trisulfonic acid, disodium salt (ANTS) and 45 mM quencher; p-xylene-bis-pyridiniumbromide (DPX) in LUV buffer (10 mM HEPES pH 6.8, 200 mM KCl and 5 mM MgCl2). We mixed the lipid film in ANTS/DPX solution by vortexing and sonication (~15 min) followed by extrusion through polycarbonate membrane of 2 μm pore size (Avanti Polar lipids) to generate homogenous large unilamellar vesicles (LUVs). We separated LUVs from free ANTS/DPX by S500 size exclusion chromatography and stored them at 4 °C in the dark. We prepared peptide and protein dilutions in 96-well black flat bottom plates (Costar) kept on ice. ANTS release from permeabilized liposomes causes an increase in fluorescence, which we monitored at 37 °C for 90 min using a CLARIOSTAR microplate reader (BMG Labtech) set at excitation and emission wavelengths of 360 and 530 nm, respectively. We normalized the data relative to maximum and minimum fluorescence induced by 3% CHAPS and buffer controls, respectively. We quantified liposome permabilization by integrating area under curve (AUC) of normalized traces based on the Simpson’s equation, and analyzed that data in Excel and GraphPad Prism. AUC measurements reflect the kinetic and extent of liposome permeabilization and provide quantitative means for comparison between different experimental conditions (e.g., BAK mutants with gross or partial variation in activity). Variability in permeabilization of different liposomes is common and our analyses compare among conditions investigated with the same liposomes. Although the absolute permeabilization values may differ, the trends for the same conditions are always very similar between different liposomes.

[2] = test system: BCL2allKO HCT116 cells reconstituted with Dox-inducible mC-BAK; assay: Dox-induced cell death by IncuCyte imaging of SYTOX Green uptake (autoactivation); type: cell-based, human; conditions: for SYTOX Green +ve counts/confluence AUC of kinetic traces: Fig 3d; for AUC (48 hr) of SYTOX Green counts/confluence: mC-BAK BCL2allKO HCT116 + Dox + qVD, average, N = 3
Source text: For mammalian cell culture experiments, we cloned the full length human BAK cDNA into pCR 2.1 TOPO vector, mutated BAK as needed, and PCR amplified the BAK gene for cloning into the BamHI and NotI sites of pRETROX mCherry vector for retroviral transduction. Amplification and mutagenesis primers are included in Supplementary Table 4. To test direct BAK activation and BAK autoactivation in cells, we produced cells stably expressing mCherry-human BAK (mC-BAK) ± human BID (BID) on a genetic background devoid of the entire BCL-2 family repertoire (all 17 BCL-2 genes), BCL2allKO HCT116, as described by the Xu Luo laboratory. We expressed WT and mutant mC-BAK using the doxycycline (Dox)-based inducible Tet-On 3G retroviral system from the pRetroX-TRE3G-Puro^R in BCL2allKO HCT116 cells expressing the Tet3G from pRetroX-Tet3G-Blast^R. We selected cells with puromycin (2.5 µg/mL) and blasticidin (2 µg/mL) starting at 2 days after retroviral transduction. To enrich for populations of cells that express mC-BAK, we treated cells with low Dox dose (25 ng/mL) and fluorescence-activated cell sorted (FACS) the mCherry positive cells. We performed the enrichment twice before cell death analysis. One caveat of our cellular system is tagging BAK with N-terminal mCherry, which may affect folding efficiency, degradation, and BAK interactome.
(§1) We seeded cells in 24-well (100,000 cells/well), 96-well (15,000 cells/well), or 384-well (10,000 cells/well) plates coated with 10 µg/mL fibronectin. After ≥24 h of attachment and recovery, we induced cell death with Dox (up to 1000 ng/mL) and monitored SYTOX Green (25 nM) uptake by Incucyte imaging. This dye marks cells with compromised plasma membrane integrity. mC-BAK expressed before 24 h, which coincided with detectable cell death. We monitored Incucyte imaging for up to 48 h, followed by endpoint FACS analysis to measure the extent of cell death based on SYTOX Green positive cells on FACSCalibur systems (BD Biosciences). As expected, cells with low mCherry fluorescence were refractory to cell death.

[3] = test system: BCL2allKO HCT116 cells reconstituted with mC-BAK; assay: Endpoint FACS analysis of SYTOX Green positive cells; type: cell-based, human; conditions: average, N = 3
Experimental: as §1

[4] = test system: BCL2allKO HCT116 cells expressing mC-BAK and BID; assay: Dox + TRAIL + CHX induced cell death by IncuCyte imaging of SYTOX Green uptake (direct activation); type: cell-based, human; conditions: TRAIL 200 ng/mL + CHX 0.5 µg/mL added at 6 h
Experimental: We achieved stable, constitutive expression of human BID in mC-BAK expressing BCL2allKO HCT116 by retroviral transduction based on pMX-human-BID-IRES-GFP. Amplification primers are included in Supplementary Table 4. We performed two rounds of FACS sorting gating on GFP-positive cells to enrich for populations of cells that express BID.
For coexpression of mC-BAK + BID, we treated cells with different doses of Dox for 24 h to induce expression of mC-BAK. At 6 h, we treated cells with TRAIL (200 ng/mL) + cycloheximide (CHX, 0.5 µg/mL) to promote BID activation under conditions of protein synthesis inhibition by CHX, and continued to record Incucyte imaging of SYTOX Green uptake up to 48 h. We blocked caspase activity with qVD (40 µM).

B1: M71A (0): BAK missense mutant (protein, UniProt Q16611 2-211, looked up, variant M71A)
Bcl-2 homologous …: ASGQGPGPPRQECGEPALPSASEEQVAQDTEEVFRSYVFYRHQQEQEAEGVAAPADPEMVTLPLQPSSTAGQVGRQLAIIGDDINRRYDSEFQTMLQHLQPTAENAYEYFTKIATSLFESGINWGRVVALLGFGYRLALHVYQHGLTGFLGQVTRFVVDFMLHHCIARWIAQRGGWVAALNLGNGPILNVLVVLGVVLLGQFVVRRFFKS
In the case of B1, the “autoactivation in liposome permeabilization assays” value (“autoactivation” below) [1] is reported as “behave similar to WT BAK”.

B2: I85A (4): BAK missense mutant (protein, UniProt Q16611 2-211, looked up, variant I85A)
Bcl-2 homologous …: ASGQGPGPPRQECGEPALPSASEEQVAQDTEEVFRSYVFYRHQQEQEAEGVAAPADPEMVTLPLQPSSTMGQVGRQLAIIGDDANRRYDSEFQTMLQHLQPTAENAYEYFTKIATSLFESGINWGRVVALLGFGYRLALHVYQHGLTGFLGQVTRFVVDFMLHHCIARWIAQRGGWVAALNLGNGPILNVLVVLGVVLLGQFVVRRFFKS
For B2, the “autoactivation” value [1] was “activity comparable to WT”.

B3: D83A (s): BAK missense mutant, autoactivation-impaired; in cells as mCherry fusion (protein)
chain: MASGQGPGPPRQECGEPALPSASEEQVAQDTEEVFRSYVFYRHQQEQEAEGVAAPADPEMVTLPLQPSSTMGQVGRQLAIIGADINRRYDSEFQTMLQHLQPTAENAYEYFTKIATSLFESGINWGRVVALLGFGYRLALHVYQHGLTGFLGQVTRFVVDFMLHHCIARWIAQRGGWVAALNLGNG
modifications: left off: His6, C-terminal, kept
notes: in cells as mCherry fusion
For B3, the “SYTOX Green +ve counts/confluence AUC of kinetic traces” value (“SYTOX Green +ve counts/confluence AUC” below) ([2]; Dox 6.25 ng/mL) was 251.48, the “SYTOX Green +ve counts/confluence AUC” value ([2]; Dox 6.25 ng/mL + qVD) was 178.809 and the “SYTOX Green +ve counts/confluence AUC” value ([2]; Dox 12.5 ng/mL) was 298.87. For the same molecule, the “SYTOX Green +ve counts/confluence AUC” value ([2]; Dox 12.5 ng/mL + qVD) was 216.467, the “SYTOX Green +ve counts/confluence AUC” value ([2]; Dox 25 ng/mL) was 546.446 and the “SYTOX Green +ve counts/confluence AUC” value ([2]; Dox 25 ng/mL + qVD) was 167.305. For the same molecule, the “SYTOX Green +ve counts/confluence AUC” value ([2]; Dox 50 ng/mL) was 973.937, the “SYTOX Green +ve counts/confluence AUC” value ([2]; Dox 50 ng/mL + qVD) was 180.875 and the “SYTOX Green +ve counts/confluence AUC” value ([2]; Dox 100 ng/mL) was 1429.67. For the same molecule, the “SYTOX Green +ve counts/confluence AUC” value ([2]; Dox 100 ng/mL + qVD) was 197.929, the “SYTOX Green +ve counts/confluence AUC” value ([2]; Dox 500 ng/mL) was 1807.16 and the “SYTOX Green +ve counts/confluence AUC” value ([2]; Dox 500 ng/mL + qVD) was 226.028. For the same molecule, the “SYTOX Green +ve counts/confluence AUC” value ([2]; Dox 1000 ng/mL) was 2018.82, the “SYTOX Green +ve counts/confluence AUC” value ([2]; Dox 1000 ng/mL + qVD) was 223.673 and the Dox-induced cell death ([2]; IncuCyte SYTOX Green up to 48 h) was “consistently less potent at inducing apoptosis than V74A(1)”. For the same molecule, the “AUC (48 hr) of SYTOX Green counts/confluence” value ([2]; Dox 100 ng/mL) was 54126.6, the “AUC (48 hr) of SYTOX Green counts/confluence” value ([2]; Dox 1000 ng/mL) was 77700.1 and the “fold higher expression level for similar cell death compared to V74A” value ([2]; mC-BAK/actin immunoblot, Fig. 3d) was ~ 10 fold. The “flow cytometry SYTOX Green counts/confluence (48 hr)” value ([3]; Dox 100 ng/mL) was 35.2333, the “flow cytometry SYTOX Green counts/confluence (48 hr)” value ([3]; Dox 1000 ng/mL) was 43.7667 and the “cell death with Dox + TRAIL + CHX compared to Dox alone” value [4] was “boosted the levels of cell death”.

B4: R42A: BAK mutant in helix α1 electrostatic network (protein, UniProt Q16611 2-211, looked up, variant R42A)
Bcl-2 homologous …: ASGQGPGPPRQECGEPALPSASEEQVAQDTEEVFRSYVFYAHQQEQEAEGVAAPADPEMVTLPLQPSSTMGQVGRQLAIIGDDINRRYDSEFQTMLQHLQPTAENAYEYFTKIATSLFESGINWGRVVALLGFGYRLALHVYQHGLTGFLGQVTRFVVDFMLHHCIARWIAQRGGWVAALNLGNGPILNVLVVLGVVLLGQFVVRRFFKS
For B4, the “autoactivation” value [1] was “hyperactive compared to WT”.

B5: E46A: BAK mutant in helix α1 electrostatic network (protein, UniProt Q16611 2-211, looked up, variant E46A)
Bcl-2 homologous …: ASGQGPGPPRQECGEPALPSASEEQVAQDTEEVFRSYVFYRHQQAQEAEGVAAPADPEMVTLPLQPSSTMGQVGRQLAIIGDDINRRYDSEFQTMLQHLQPTAENAYEYFTKIATSLFESGINWGRVVALLGFGYRLALHVYQHGLTGFLGQVTRFVVDFMLHHCIARWIAQRGGWVAALNLGNGPILNVLVVLGVVLLGQFVVRRFFKS
For B5, the “autoactivation” value [1] was “hyperactive compared to WT”.

B6: R137A: BAK mutant in helix α1 electrostatic network (protein, UniProt Q16611 2-211, looked up, variant R137A)
Bcl-2 homologous …: ASGQGPGPPRQECGEPALPSASEEQVAQDTEEVFRSYVFYRHQQEQEAEGVAAPADPEMVTLPLQPSSTMGQVGRQLAIIGDDINRRYDSEFQTMLQHLQPTAENAYEYFTKIATSLFESGINWGRVVALLGFGYALALHVYQHGLTGFLGQVTRFVVDFMLHHCIARWIAQRGGWVAALNLGNGPILNVLVVLGVVLLGQFVVRRFFKS
In the case of B6, the “autoactivation” value [1] is reported as “hyperactive compared to WT”.

B7: I81A (3): BAK missense mutant (protein, UniProt Q16611 2-211, looked up, variant I81A)
Bcl-2 homologous …: ASGQGPGPPRQECGEPALPSASEEQVAQDTEEVFRSYVFYRHQQEQEAEGVAAPADPEMVTLPLQPSSTMGQVGRQLAIAGDDINRRYDSEFQTMLQHLQPTAENAYEYFTKIATSLFESGINWGRVVALLGFGYRLALHVYQHGLTGFLGQVTRFVVDFMLHHCIARWIAQRGGWVAALNLGNGPILNVLVVLGVVLLGQFVVRRFFKS
In the case of B7, the “AUC (48 hr) of SYTOX Green counts/confluence” value ([2]; Dox 100 ng/mL) is reported as 55640.5, the “AUC (48 hr) of SYTOX Green counts/confluence” value ([2]; Dox 1000 ng/mL) is reported as 85389.8 and the “flow cytometry SYTOX Green counts/confluence (48 hr)” value ([3]; Dox 100 ng/mL) is reported as 37.7333. The “flow cytometry SYTOX Green counts/confluence (48 hr)” value ([3]; Dox 1000 ng/mL) was 54.2.
